Data reported in paper PMC11430254, “Insights into Transient Dimerisation of Carnitine/Acylcarnitine Carrier (SLC25A20) from Sarkosyl/PAGE, Cross-Linking Reagents, and Comparative Modelling Analysis” (Biomolecules, 2024).

Assays:
[1] = target: the molecule itself; assay: cross-linking; purified CAC reconstituted in liposomes (0.5 µg protein), 0.5 mM Sulfo-MBS (spacer arm 9.9 Å), 30 min at room temperature, quenched with 10 mM DTE and 20 mM Tris-HCl pH 8.0; SDS-PAGE and immunoblot
[2] = target: the molecule itself; assay: native gel or EMSA; Sarkosyl/PAGE: 14% polyacrylamide, 0.05% w/v Sarkosyl in gel, samples and running buffer, 100 Volt, 4 °C; purified CAC in Triton X-100 or extracted from proteoliposomes with 0.05% Sarkosyl; silver nitrate staining; 59 kDa band excised and run on SDS-PAGE with immunoblot
[3] = target: the molecule itself; assay: cross-linking; recombinant CAC WT alone (100) or mixed with C-lessV (75/25, 50/50) reconstituted in liposomes, incubated with Sulfo-SMPB; SDS-PAGE and immunoblot

| Protein | stoichiometry N [1] | stoichiometry N [2] | stoichiometry N [3] |
| --- | --- | --- | --- |
| native carnitine/acylcarnitine carrier purified from isolated rat liver mitochondria (natural protein, UniProt P97521 1-301, looked up, mitochondrial carnitine/acylcarnitine carrier (CAC, SLC25A20), rat, native protein from liver mitochondria; single band of apparent molecular weight 32,500 Da on SDS gel; Integral membrane protein; also called CAC; SLC25A20; source: purified from rat liver mitoplasts (3% Triton X-100 extract, hydroxyapatite, celite with cardiolipin); used in Triton X-100 or reconstituted in liposomes) MAEEPKPISPLKNLLAGGFGGVCLVFVGHPLDTVKVRLQTQPPSLPGQPPMYSGTIDCFRKTLFREGITGLYRGMAAPIIGVTPMFAVCFFGFGLGKRLQQKSPEDELTYPQLFTAGMLSGVFTTGIMTPGERIKCLLQIQASSGKNKYSGTLDCAKKLYQEFGIRGFYKGTALTLMRDVPASGMYFMTYEWLKNLFTPQGKSVHDLSVPRVLVAGGFRGIFNWVVAIPPDVLKSRFQTAPPGKYPNGFRDVLRELIREEGVTSLYKGFNAVMIRAFPANAACFLGFEIPMKILNWIAPNL | 2 | ~2 | – |
| recombinant carnitine/acylcarnitine carrier wild type (natural protein, UniProt P97521 1-301, looked up, also called CAC WT; WT; source: overexpressed from cDNA cloned in pMW7, purified, reconstituted in liposomes) MAEEPKPISPLKNLLAGGFGGVCLVFVGHPLDTVKVRLQTQPPSLPGQPPMYSGTIDCFRKTLFREGITGLYRGMAAPIIGVTPMFAVCFFGFGLGKRLQQKSPEDELTYPQLFTAGMLSGVFTTGIMTPGERIKCLLQIQASSGKNKYSGTLDCAKKLYQEFGIRGFYKGTALTLMRDVPASGMYFMTYEWLKNLFTPQGKSVHDLSVPRVLVAGGFRGIFNWVVAIPPDVLKSRFQTAPPGKYPNGFRDVLRELIREEGVTSLYKGFNAVMIRAFPANAACFLGFEIPMKILNWIAPNL | – | – | 2 |
